T1: H-RAHAK(DNP)-OH
T1 chain: RAHAK


Columns and labels:
H-RAHAK(DNP)-OH = target: T1, H-RAHAK(DNP)-OH
[1] = test system: anti-Her2-Fab-LC_RRKHAK(CF)/HC_YRAH (YRAH at heavy chain); experiment: Orthogonal dual-modification of Her2-specific Fab-fragment, second step (heavy chain, DM1); type: biochemical
Excerpt: FIG. 6: Dual modification of a Fab-fragment by utilizing variation in substrate specificity of two Trypsiligase II variants. The HER2-specific Fab-fragment of Trastuzumab (anti-Her2-Fab-LC_RRKH/HC_YRAH, Heavy chain (SEQ ID NO: 2) and anti-Her2-Fab-LC_RRKH/HC_YRAH, Light chain (SEQ ID NO: 3)) was used and the respective recognition sequences genetically introduced. A) Trypsiligase II variant K7F11_H39Y/H59Y/K189D which recognizes the sequence RRKH was used in the first step for attachment of a carboxyfluorescein(CF)-bearing nucleophile. B) In the second step Trypsiligase II variant A2C8 which recognizes the sequence YRAH was used for modification with a nucleophile covalently bound to mertansine (DM1). Analysis by LC-MS. The amount of modified and unmodified Fab-fragment species for the first and second modification step are shown in MS spectrum A and B, respectively. […]
The second modification reaction of the heavy chain was performed in a solution containing 50 μM of the single modified aHer2-Fab-LC_RRKHAK(CF)/HC_YRAH, 1000 μM H-RKKAK(MCC-DM1)-OH, 5 μM A2C8, 100 mM HEPES/NaOH pH 7.8, 100 mM NaCl. […] The proportions of modified and unmodified Fab-fragment species for the first and second modification step were analyzed by LC-MS (see example 1). […] No modification upon the recognition sequence at the heavy chain had been monitored.

Molecule	KM, acyl acceptor (µM); zinc ions (100 µM): no; transamidation with 250 µM Bz-PGGYRAHAG-OH as acyl donor (H-RAHAK(DNP)-OH) [µM]	KM, acyl acceptor (µM); zinc ions (100 µM): yes; transamidation with 250 µM Bz-PGGYRAHAG-OH as acyl donor (H-RAHAK(DNP)-OH) [µM]	fold increase of KM of the nucleophilic peptide without zinc ions against with zinc ions (H-RAHAK(DNP)-OH)	yield of dual labeled Fab-fragment ([1]; estimated by mass spectrometry)	site of modification, second step ([1]; mass spectrometry)
Trypsiligase II (trypsin variant Y39H/Y59H/K60E/D189K) (protein) IVGGYTCQENSVPYQVSLNSGHHFCGGSLINDQWVVSAAHCHESRIQVRLGEHNINVLEGNEQFVNAAKIIKHPNFDRKTLNNDIMLIKLSSPVKLNARVATVALPSSCAPAGTQCLISGWGNTLSSGVNEPDLLQCLDAPLLPQADCEASYPGKITDNMVCVGFLEGGKKSCQGDSGGPVVCNGELQGIVSWGYGCALPDNPGVYTKVCNYVDWIQDTIAAN	1630	144	increased by a factor of 11 to 1630 µM		
A2C8: Trypsiligase II + H40F, A55A, R96E, K97D, L99F, N143E, E151Y, S190V, Q192A, S214G, G219Q, A221T (protein) IVGGYTCQENSVPYQVSLNSGHFFCGGSLINDQWVVSAAHCHESRIQVRLGEHNINVLEGNEQFVNAAKIIKHPNFDEDTFNNDIMLIKLSSPVKLNARVATVALPSSCAPAGTQCLISGWGETLSSGVNYPDLLQCLDAPLLPQADCEASYPGKITDNMVCVGFLEGGKKVCAGDSGGPVVCNGELQGIVGWGYQCTLPDNPGVYTKVCNYVDWIQDTIAAN				approximately 75%	exclusively modification at the C-terminal end of the heavy chain

— patent US20220235344A1, “TRYPSIN VARIANTS WITH IMPROVED ENZYMATIC PROPERTIES” (BIOPHARMA TRANSLATIONSINSTITUT DESSAU FORSCHUNGS GMBH, priority 2018, published 2022)
